# Substitutions are numbered along the chain they refer to. Like-named read-outs stand apart in the source and are kept apart here.
# T1: full length human EpCAM on CHO cells (human, UniProt P16422 24-314)
# T1 construct: CHO cells stably expressing full length human EpCAM; also called hu-EpCAM-FL; human EpCAM-FL
# T1 sequence: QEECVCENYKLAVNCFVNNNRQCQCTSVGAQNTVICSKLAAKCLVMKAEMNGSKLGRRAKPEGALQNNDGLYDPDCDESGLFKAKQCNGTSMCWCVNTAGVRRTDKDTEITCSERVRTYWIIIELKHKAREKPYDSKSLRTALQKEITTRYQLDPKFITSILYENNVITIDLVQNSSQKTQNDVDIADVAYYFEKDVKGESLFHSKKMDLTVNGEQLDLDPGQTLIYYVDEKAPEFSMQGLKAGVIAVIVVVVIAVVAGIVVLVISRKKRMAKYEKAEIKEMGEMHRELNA
# B1: hu-1F3.3 Fab (Fab, V domains shown)
# VH: EVQLVESGGGLVQPGGSLRLSCAASGFTFSTYAMNWVRQAPGKGLEWVARIRSKYNNYATYYADSVKDRFTISRDDSKNTLYLQMNSLRAEDTAVYYCARHGNFGNSYVSWFAYWGQGTMVTVSS
# VL: QAVVTQEPSLTVSPGGTVTLTCRSSTGAVTTSNYANWVQQKPGQAPRGLIGGTNKRAPGTPARFSGSLLGGKAALTLSGVQPEDEAEYYCALWYSNLWVFGGGTKLTVL
# notes: His6 tag at the C-terminus of the Fd
# B2: hu-1F3.1 Fab (Fab, V domains shown)
# VH: B1 VH with A49S
# VL: B1 VL
# notes: His6 tag at the C-terminus of the Fd; No entry is named hu-1F3-1LC; also called hu-1F3 Fab; humanized anti CD3 antibody Fab, hu-1F3
# B3: hu-1F3.2 Fab (Fab, V domains shown)
# VH: B1 VH with S30N, A49S
# VL: B1 VL
# notes: as for B1
# B4: hu-1F3.4 Fab (Fab, V domains shown)
# VH: B1 VH with A99V
# VL: B1 VL
# notes: as for B1
# B5: hu-1F3.5 Fab (Fab, V domains shown)
# VH: B1 VH with S30N, A99V
# VL: B1 VL
# notes: His6 tag at the C-terminus of the Fd; also called huIF3.5
# B6: hu-1F3.8 Fab (Fab, V domains shown)
# VH: B1 VH
# VL: QAVVTQEPSLTVSPGGTVTLTCRSSTGAVTTSNYANWFQQKPGQAPRGLIGGTNKRAPGTPARFSGSLLGGKAALTLSGVQPEDEAEYYCALWYSNLWVFGGGTKLTVLG
# notes: as for B1
# B7: hu-1F3.6 Fab (Fab, V domains shown)
# VH: B1 VH with A49S
# VL: B6 VL
# notes: as for B1
# B8: hu-1F3.7 Fab (Fab, V domains shown)
# VH: B1 VH with S30N, A49S
# VL: B6 VL
# notes: as for B1
# B9: hu-1F3.9 Fab (Fab, V domains shown)
# VH: B1 VH with A99V
# VL: B6 VL
# notes: as for B1
# B10: hu-1F3.10 Fab (Fab, V domains shown)
# VH: B1 VH with S30N, A99V
# VL: B6 VL
# notes: as for B1
# B11: EpCAM1.2-(L)-hu-1F3.1 Fab (bispecific antibody)
# heavy chain Fd (VH-CH1), unfused: EVQLVESGGGLVQPGGSLRLSCAASGFTFSTYAMNWVRQAPGKGLEWVSRIRSKYNNYATYYADSVKDRFTISRDDSKNTLYLQMNSLRAEDTAVYYCARHGNFGNSYVSWFAYWGQGTMVTVSSASTKGPSVFPLAPCSRSTSESTAALGCLVKDYFPEPVTVSWNSGALTSGVHTFPAVLQSSGLYSLSSVVTVPSSNFGTQTYTCNVDHKPSNTKVDKTVGGGGSHHHHHHH
# light chain with anti-EpCAM scFv EpCAM1.2 at the N-terminus: EVQLVESGGGLVQPGGSLRLSCAASGFTFSNYWMSWVRQAPGKGLEWVANIKQDGSEKFYVDSVKGRFTISRDNAKNSLYLQMNSLRAEDMAVYYCARVGGAWELGYWGQGTLVTVSAGGGGSGGGGSGGGGSGAQSVLTQPPSVSGAPGQRVTISCTGSSSNIGSYYGVHWYQQLPGTAPKLLIYSDTNRPSGVPDRFSGSKSGTSASLAITGLQAEDEADYYCQSYDSSLSGRVFGGGTKLTVLGRAQAVVTQEPSLTVSPGGTVTLTCRSSTGAVTTSNYANWVQQKPGQAPRGLIGGTNKRAPGTPARFSGSLLGGKAALTLSGVQPEDEAEYYCALWYSNLWVFGGGTKLTVLGQPKAAPSVTLFPPSSEELQANKATLVCLISDFYPGAVTVAWKADSSPVKAGVETTTPSKQSNNKYAASSYLSLTPEQWKSHRSYSCQVTHEGSTVEKTVAPTECS
# notes: member of group m20; also called EpCAM1.2-(L)-hu-1F3 Fab
# B12: EpCAM1.2-(H+L)-hu-1F3.1 Fab (bispecific antibody)
# heavy chain Fd with anti-EpCAM scFv EpCAM1.2 at the N-terminus: EVQLVESGGGLVQPGGSLRLSCAASGFTFSNYWMSWVRQAPGKGLEWVANIKQDGSEKFYVDSVKGRFTISRDNAKNSLYLQMNSLRAEDMAVYYCARVGGAWELGYWGQGTLVTVSAGGGGSGGGGSGGGGSGAQSVLTQPPSVSGAPGQRVTISCTGSSSNIGSYYGVHWYQQLPGTAPKLLIYSDTNRPSGVPDRFSGSKSGTSASLAITGLQAEDEADYYCQSYDSSLSGRVFGGGTKMTVLGRAEVQLVESGGGLVQPGGSLRLSCAASGFTFSTYAMNWVRQAPGKGLEWVSRIRSKYNNYATYYADSVKDRFTISRDDSKNTLYLQMNSLRAEDTAVYYCARHGNFGNSYVSWFAYWGQGTMVTVSSASTKGPSVFPLAPCSRSTSESTAALGCLVKDYFPEPVTVSWNSGALTSGVHTFPAVLQSSGLYSLSSVVTVPSSNFGTQTYTCNVDHKPSNTKVDKTVGGGGSHHHHHHH
# light chain with anti-EpCAM scFv EpCAM1.2 at the N-terminus: B11 light chain with anti-EpCAM scFv EpCAM1.2 at the N-terminus
# notes: member of group m20; also called EpCAM1.2-(H+L)-hu-1F3 Fab
# B13: EpCAM1.2-(H)-hu-1F3.1 Fab (bispecific antibody)
# heavy chain Fd with anti-EpCAM scFv EpCAM1.2 at the N-terminus: B12 heavy chain Fd with anti-EpCAM scFv EpCAM1.2 at the N-terminus
# light chain, unfused: QAVVTQEPSLTVSPGGTVTLTCRSSTGAVTTSNYANWVQQKPGQAPRGLIGGTNKRAPGTPARFSGSLLGGKAALTLSGVQPEDEAEYYCALWYSNLWVFGGGTKLTVLGQPKAAPSVTLFPPSSEELQANKATLVCLISDFYPGAVTVAWKADSSPVKAGVETTTPSKQSNNKYAASSYLSLTPEQWKSHRSYSCQVTHEGSTVEKTVAPTECS
# notes: member of group m20; also called EpCAM1.2-(H)-hu-1F3 Fab
# B14: OKT3 Fab (Fab, V domains shown)
# VH: not shown
# VL: QIVLTQSPAIMSASPGEKVTMTCSASSSVSYMNWYQQKSGTSPKRWIYDTSKLASGVPAHFRGSGSGTSYSLTISGMEAEDAATYYCQQWSSNPFTFGSGTKLEINR
# notes: Anti-CD3 Fab; biotinylated in the assays
# Key:
# [1] = target: T2, recombinant cyno CD3epsilon/delta Fc(K-H) heterodimer (cynomolgus); assay: ELISA, immobilised antigen, His6-tagged Fab, anti-His6 antibody HRP conjugate, ABTS, OD405 [continued) E]
# T2 construct: also called cynomolgus CD3epsilon/delta; recombinant cyno CD3epsilon/delta heterodimeric Fc protein; copies: 1 + 1
# Protocol: (§1) Humanized Fab proteins are his6 tagged at the C-terminus of Fd and the Fabs bound to the 96-well plate immobilized antigens were detected using anti his6 tag mouse antibody conjugated with HRP. ABTS was used as substrate and absorptions were measured at 405 nm.
# (§2) MAXISORP® plates were used for ELISA binding assays. 50 μl of 1 μg/ml of antigens in 50 mM NaHCO₃were used to coat the plates at 4° C. overnight followed by incubation with 200 μl of 5% dry milk/TBS-0.05% TWEEN®-20 (i.e., polysorbate 20) (MTBS-T)/well. Antibodies were usually diluted in 5% MTBS-T and transferred to antigen coated plates and incubated for 1 hr with gentle shaking at room temperature. Bound antibodies were detected either by streptavidin-HRP (for detecting biotinylated antibodies) or anti-his tag-HRP conjugate (for his tagged antibodies). ABTS™ (i.e., 2,2′-azino-bis(3-ethylbenzothiazoline-6-sulphonic acid) solution in 50 mM citrate buffer was used for detection with OD405 measurement on using a microplate reader (Biotek).
# [2] = target: T3, human CD3epsilonAA1-27.Fc (human); assay: ELISA, immobilised antigen, His6-tagged Fab, anti-His6 antibody HRP conjugate, ABTS, OD405
# T3 construct: also called recombinant human CD3epsilon N-terminal peptide (aa1-27.Fc fusion); CD3epsilon N-terminal amino acid 1-27 peptide Fc fusion
# Protocol: as §1, §2
# [3] = target: T4, recombinant human CD3epsilon/delta Fc(K-H) heterodimer (human); assay: as above
# T4 construct: also called human CD3epsilon/delta knob and hole Fc heterodimer; copies: 1 + 1
# Protocol: as §1, §2
# [4] = target: T1, full length human EpCAM on CHO cells; assay: flow cytometry on CHO cells stably expressing full length human EpCAM, PE detection
# Protocol: (§3) In general, cells were blocked in 1% BSA/PBS for 1 hr at 4 C and antibodies of interest were diluted into 1% BSA/PBS were added to blocked cells for incubation at 4° C. for 1 hr. after one wash with 1% BSA/PBS, staining procedures vary depending on the availability of antibodies or fluorescent antibody conjugate. In some case, direct fluorescence conjugates were used. In other cases, anti affinity tag antibodies (secondary antibody) were used to incubate with the cells followed by anti-species antibody conjugated with a particular fluorophore. In some other experiments, antibody (or other affinity reagent such as streptavidin) with fluorescence conjugate was used directly as secondary antibody (secondary reagent).
# [5] = target: T3, human CD3epsilonAA1-27.Fc; assay: ELISA, immobilised antigen, His6-tagged Fab, anti-His6 antibody HRP conjugate, ABTS, OD405; remark: listed apart in the source
# Protocol: as §1, §2
# [6] = target: T2, recombinant cyno CD3epsilon/delta …; assay: ELISA, immobilised antigen, His6-tagged Fab, anti-His6 antibody HRP conjugate, ABTS, OD405 [continued) F]
# Protocol: as §1, §2
# [7] = target: T4, recombinant human CD3epsilon/delta …; assay: ELISA, immobilised antigen, His6-tagged Fab, anti-His6 antibody HRP conjugate, ABTS, OD405; remark: listed apart in the source
# Protocol: as §1, §2
# [8] = target: T2, recombinant cyno CD3epsilon/delta …; assay: ELISA, immobilised antigen, biotinylated protein, streptavidin-HRP, ABTS, OD405
# [9] = target: T1, full length human EpCAM on CHO cells; assay: flow cytometry on CHO cells stably expressing full length human EpCAM, PE detection; remark: listed apart in the source
# Protocol: as §3
# [10] = target: T3, human CD3epsilonAA1-27.Fc; assay: ELISA, immobilised antigen, biotinylated protein, streptavidin-HRP, ABTS, OD405
# [11] = target: T1, full length human EpCAM on CHO cells; assay: flow cytometry on CHO cells stably expressing full length human EpCAM, PE detection; remark: listed apart in the source
# Protocol: as §3
# [12] = target: T3, human CD3epsilonAA1-27.Fc; assay: ELISA, immobilised antigen, biotinylated protein, streptavidin-HRP, ABTS, OD405; remark: listed apart in the source
# [13] = target: T2, recombinant cyno CD3epsilon/delta …; assay: as above; remark: listed apart in the source
# T4 sequence (chain, as listed by the source mutant limits assumed, chain 1 of 2): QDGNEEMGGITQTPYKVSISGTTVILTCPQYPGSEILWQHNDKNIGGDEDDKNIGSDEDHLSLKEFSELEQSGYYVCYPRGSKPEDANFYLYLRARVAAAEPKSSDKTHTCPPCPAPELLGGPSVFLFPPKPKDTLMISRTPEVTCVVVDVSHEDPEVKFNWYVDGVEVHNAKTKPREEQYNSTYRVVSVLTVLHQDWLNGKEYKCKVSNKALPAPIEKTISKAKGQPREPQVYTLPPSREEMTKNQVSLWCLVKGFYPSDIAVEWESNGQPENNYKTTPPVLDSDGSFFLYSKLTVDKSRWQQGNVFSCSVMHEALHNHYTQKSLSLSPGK
# T4 sequence (chain, as listed by the source mutant limits assumed, chain 2 of 2): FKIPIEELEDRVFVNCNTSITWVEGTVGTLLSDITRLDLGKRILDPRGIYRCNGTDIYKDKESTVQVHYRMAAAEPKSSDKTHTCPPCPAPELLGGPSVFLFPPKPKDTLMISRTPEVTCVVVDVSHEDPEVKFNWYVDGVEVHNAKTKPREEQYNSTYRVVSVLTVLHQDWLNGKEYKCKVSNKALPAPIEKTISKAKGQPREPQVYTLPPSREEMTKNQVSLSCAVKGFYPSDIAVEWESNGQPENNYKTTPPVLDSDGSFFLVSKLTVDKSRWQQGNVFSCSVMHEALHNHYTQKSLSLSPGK
binder,measurement,setting,value
B1,binding result,[1],binds
same,binding result,[2],binds
same,binding result,[3],binds
B2,binding result,[4],no binding
same,binding result,[1],binds
same,binding result,[2],binds
same,binding result,[3],binds
B3,binding result,[1],binds
same,binding result,[2],binds
same,binding result,[3],binds
B4,binding result,[2],binds
B5,EC50 (read off the curve),[1],~2 nM
same,EC50 (read off the curve),[2],~2 nM
same,EC50 (read off the curve),[3],~3 nM
B6,binding result,[5],binds
same,binding result,[6],binds
same,binding result,[7],binds
B7,binding result,[5],binds
same,binding result,[6],binds
same,binding result,[7],binds
B8,binding result,[5],binds
same,binding result,[6],binds
same,binding result,[7],binds
B9,binding result,[5],binds
same,binding result,[6],binds
same,binding result,[7],binds
B10,binding result,[5],binds
same,binding result,[6],binds
same,binding result,[7],binds
B11,binding result,[8],binds
same,binding result,[9],binds
same,binding result,[10],binds
B12,binding result,[8],binds
same,binding result,[9],binds
same,binding result,[10],binds
B13,binding result,[8],binds
same,binding result,[9],binds
same,binding result,[10],binds
B14,binding result,[11],no binding
same,binding result,[12],no binding (tested: about 80 nM (last point; axis to 100 nM))
same,binding result,[13],no binding (tested: about 80 nM (last point; axis to 100 nM))

# Source: patent US20210393776A1 (FABION PHARMACEUTICALS, published 2021)
